Results: article PMC10281268

Molecular target: GFP-tagged Y822F vinculin (chicken), expressed in 4T1 vinculin-knockout cells (chicken) (UniProt P12003)
Test: co-IP; GFP or GFP-tagged vinculins immunoprecipitated with GFP antibody and protein A/G agarose from lysates of 4T1 vinculin-knockout cells (EB or RIPA buffer), reducing SDS-PAGE, immunoblot for talin, paxillin or β-actin; in one panel cells pre-treated with 10 mM NAC for 1 h (paxillin with Y822C reduced, not significantly changed with wild type and Y822F)

Chain of UniProt P12003 (P12003 whole entry Y822F): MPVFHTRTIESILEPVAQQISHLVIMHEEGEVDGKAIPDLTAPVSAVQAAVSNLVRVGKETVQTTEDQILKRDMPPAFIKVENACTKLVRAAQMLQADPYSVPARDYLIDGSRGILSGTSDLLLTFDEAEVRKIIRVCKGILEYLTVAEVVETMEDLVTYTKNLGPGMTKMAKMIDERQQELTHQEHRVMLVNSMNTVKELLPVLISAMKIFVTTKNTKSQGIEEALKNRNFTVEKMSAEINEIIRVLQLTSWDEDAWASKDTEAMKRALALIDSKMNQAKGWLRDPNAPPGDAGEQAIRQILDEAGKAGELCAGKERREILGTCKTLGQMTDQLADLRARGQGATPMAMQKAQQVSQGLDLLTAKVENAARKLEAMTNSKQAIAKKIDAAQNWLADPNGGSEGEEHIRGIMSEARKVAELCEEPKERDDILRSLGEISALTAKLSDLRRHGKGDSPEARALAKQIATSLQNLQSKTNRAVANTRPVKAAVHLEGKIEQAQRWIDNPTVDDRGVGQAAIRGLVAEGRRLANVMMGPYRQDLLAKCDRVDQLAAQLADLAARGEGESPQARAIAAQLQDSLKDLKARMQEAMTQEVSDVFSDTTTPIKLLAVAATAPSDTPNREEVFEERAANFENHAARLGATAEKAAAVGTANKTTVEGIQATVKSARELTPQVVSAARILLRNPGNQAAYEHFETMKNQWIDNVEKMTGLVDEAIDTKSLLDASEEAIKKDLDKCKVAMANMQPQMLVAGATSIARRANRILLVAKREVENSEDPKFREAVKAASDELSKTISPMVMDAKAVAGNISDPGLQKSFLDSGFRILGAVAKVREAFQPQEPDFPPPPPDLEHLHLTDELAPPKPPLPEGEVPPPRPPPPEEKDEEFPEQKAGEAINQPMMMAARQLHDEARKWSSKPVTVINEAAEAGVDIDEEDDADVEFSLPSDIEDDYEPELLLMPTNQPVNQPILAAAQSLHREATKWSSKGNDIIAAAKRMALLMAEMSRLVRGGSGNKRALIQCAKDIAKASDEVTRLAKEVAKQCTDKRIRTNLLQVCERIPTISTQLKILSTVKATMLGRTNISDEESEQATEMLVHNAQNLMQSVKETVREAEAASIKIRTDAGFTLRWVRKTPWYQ

Work on “talin (endogenous in 4T1 cells; the paper's 'talin' refers collectively to talin 1 and 2) (from UniProt P26039 1-2541) (natural protein)” yielded a fold less talin recovered than with T12 vinculin of 390 fold.
